B1: Septin-4 (Homo sapiens), O43236-6 (parent)
chain: MIKRFLEDTTDDGELSKFVKDFSGNASCHPPEAKTWASRPQVPEPRPQAPDLYDDDLEFRPPSRPQSSDNQQYFCAPAPLSPSARPRSPWGKLDPYDSSEDDKEYVGFATLPNQVHRKSVKKGFDFTLMVAGESGLGKSTLVNSLFLTDLYRDRKLLGAEERIMQTVEITKHAVDIEEKGVRLRLTIVDTPGFGDAVNNTECWKPVAEYIDQQFEQYFRDESGLNRKNIQDNRVHCCLYFISPFGHGYGPSLRLLAPPGAVKGTGQEHQGQGCH
partner: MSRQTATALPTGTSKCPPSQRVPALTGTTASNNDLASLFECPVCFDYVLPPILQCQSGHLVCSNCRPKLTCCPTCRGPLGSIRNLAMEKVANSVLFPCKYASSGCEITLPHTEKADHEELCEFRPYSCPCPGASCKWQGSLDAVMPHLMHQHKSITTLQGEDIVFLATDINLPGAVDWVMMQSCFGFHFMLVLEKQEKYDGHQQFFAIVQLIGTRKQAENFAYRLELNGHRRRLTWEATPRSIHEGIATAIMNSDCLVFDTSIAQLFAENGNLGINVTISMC

The record followed here is IntAct's records for PubMed 21185211.

In this experiment the parent is B1. To be noted: with siah1_human SIAH1, Q8IUQ4.
As to MIKRFLEDTTDDGELSKFVKDFSGNASCHPPEAKTWASRAQAPAPAPQAPDLYDDDLEFRPPSRPQSSDNQQYFCAPAPLSPSARPRSPWGKLDPYDSSEDDKEYVGFATLPNQVHRKSVKKGFDFTLMVAGESGLGKSTLVNSLFLTDLYRDRKLLGAEERIMQTVEITKHAVDIEEKGVRLRLTIVDTPGFGDAVNNTECWKPVAEYIDQQFEQYFRDESGLNRKNIQDNRVHCCLYFISPFGHGYGPSLRLLAPPGAVKGTGQEHQGQGCH [P40A;V42A;E44A;R46A], the “effect of a mutation on the interaction” value is “disrupting interaction”.

As to MIKRFLEDTTDDGELSKFVKDFSGNASCHPPEAKTWASRPQAPAPAPQAPDLYDDDLEFRPPSRPQSSDNQQYFCAPAPLSPSARPRSPWGKLDPYDSSEDDKEYVGFATLPNQVHRKSVKKGFDFTLMVAGESGLGKSTLVNSLFLTDLYRDRKLLGAEERIMQTVEITKHAVDIEEKGVRLRLTIVDTPGFGDAVNNTECWKPVAEYIDQQFEQYFRDESGLNRKNIQDNRVHCCLYFISPFGHGYGPSLRLLAPPGAVKGTGQEHQGQGCH [V42A;E44A;R46A], the “effect of a mutation on the interaction” value is on record as “disrupting interaction”.
